Experimental findings from doi:10.1101/216812 are described below.

For the test, the target named is biotinylated, taxol-stabilized microtubules tethered to coverslips (TIRF binding assays). The experiment in a line: TIRF microscopy of single particles.

For “549SNAP-6HIS-3FLAG-KKT4, full-length wild-type KKT4 (natural protein)”, the average residence time worked out at 5.4 s. The substance “549SNAP-6HIS-3FLAG-KKT4 charge-reversal mutant (R123E, K132E, R154E), full length (natural protein)” returned a fold change of average residence time against wild-type KKT4 of 2 fold.
